Assay results taken from US20240409647A1, “BISPECIFIC BINDING PROTEINS AGAINST ALARMINS AND USES THEREOF” (SINOMAB BIOSCIENCE LIMITED, priority 2022, published 2024).
Several values for one entry are separate records, joined by “and”; a condition that tells them apart may be missing. Equal entries are not always repeated.

Key:
[1] = target: T1, hIL 17RD (Homo sapiens, UniProt Q8NFM7); test: ELISA, SM17 specificity against IL-17 receptor subunits (IL17RD); assay type: binding; settings: 0.4 to 0.00064 μg/mL
T1 construct: purchased R&D systems
T1 sequence (Q8NFM7 17-739): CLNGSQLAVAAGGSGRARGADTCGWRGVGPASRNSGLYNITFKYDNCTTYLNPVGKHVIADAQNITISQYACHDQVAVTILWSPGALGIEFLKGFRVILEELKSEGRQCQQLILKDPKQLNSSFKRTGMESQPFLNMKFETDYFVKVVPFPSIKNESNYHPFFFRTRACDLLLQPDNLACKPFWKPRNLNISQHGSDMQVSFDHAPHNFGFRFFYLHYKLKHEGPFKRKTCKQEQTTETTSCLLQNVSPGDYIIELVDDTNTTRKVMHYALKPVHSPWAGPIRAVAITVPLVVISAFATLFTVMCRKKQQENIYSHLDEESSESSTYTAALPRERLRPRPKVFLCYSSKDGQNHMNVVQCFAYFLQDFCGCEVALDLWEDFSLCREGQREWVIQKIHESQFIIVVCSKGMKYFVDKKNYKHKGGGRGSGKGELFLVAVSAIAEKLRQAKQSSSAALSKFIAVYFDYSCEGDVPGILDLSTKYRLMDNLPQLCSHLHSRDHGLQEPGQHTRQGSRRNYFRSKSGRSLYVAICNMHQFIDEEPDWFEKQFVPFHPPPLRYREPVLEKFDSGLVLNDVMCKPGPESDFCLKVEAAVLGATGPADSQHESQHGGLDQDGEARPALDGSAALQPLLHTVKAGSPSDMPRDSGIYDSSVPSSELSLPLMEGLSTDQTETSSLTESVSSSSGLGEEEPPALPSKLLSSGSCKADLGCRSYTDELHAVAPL
Description: A standard ELISA method was used to determine the specificity of SM17 against other human IL17 receptor subunits. Similarly, serially diluted SM17 at different concentrations (final concentrations at 0.4, 0.08, 0.016, 0.0032 and 0.00064 μg/m, respectively) was added to the wells of ELISA plates coated either with human IL-17 receptor subunits A, C, D and E (IL17RA, IL17RC, IL17RD, and IL17RE) (R&D systems).

[2] = target: T2, murine IL17RB (Mus musculus, UniProt Q9JIP3); test: ELISA, SM17 binding to coated IL-17RB protein (murine); settings: two wells
T2 construct: purchased R&D systems
T2 sequence (Q9JIP3 18-499): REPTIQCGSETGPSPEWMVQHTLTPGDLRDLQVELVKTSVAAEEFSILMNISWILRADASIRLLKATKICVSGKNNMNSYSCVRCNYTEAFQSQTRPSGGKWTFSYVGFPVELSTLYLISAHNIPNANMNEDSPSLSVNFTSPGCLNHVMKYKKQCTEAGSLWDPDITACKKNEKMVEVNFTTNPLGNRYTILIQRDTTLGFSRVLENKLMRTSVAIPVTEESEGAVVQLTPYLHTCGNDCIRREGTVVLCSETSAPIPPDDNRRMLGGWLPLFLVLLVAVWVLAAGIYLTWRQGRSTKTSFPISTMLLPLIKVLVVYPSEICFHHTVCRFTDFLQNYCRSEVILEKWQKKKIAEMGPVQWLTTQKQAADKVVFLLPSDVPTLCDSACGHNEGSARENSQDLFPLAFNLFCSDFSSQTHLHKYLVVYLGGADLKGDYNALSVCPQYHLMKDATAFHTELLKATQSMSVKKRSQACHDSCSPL
Description: A standard enzyme-linked immunosorbent assay (ELISA) method was used to determine the species specificity of SM17 against IL-17RB proteins. Briefly, IL-17RB proteins from human, mouse, cynomolgus or rhesus monkey (R&D systems, Minneapolis, MN) were diluted to 2.5 μg/ml in PBS and 50 μl of IL-17RB proteins were added to each well of ELISA strip. The strips were sealed with parafilm and incubated at 4° C. overnight for coating.
On the next day, strips were washed thrice with washing buffer (0.05% Tween 20 in PBS) and blocked with 100 μl per well with blocking buffer (3% BSA in PBS) for 2 hours RT before serially diluted SM17 (at a final concentration of 10, 2, 0.4, 0.08, 0.016, 0.0032, and 0.00064 μg/ml, respectively) was added.

[3] = test system: Normal human DCs; test: Dendritic cell potency assay, TSLP-induced CCL17 production; assay type: cell-based; set-up: key: −: no inhibition; +: weak; ++: moderate; +++: strong inhibition; settings: 5 μg/mL; TSLP 10 ng/mL, 5 days
Excerpt: TSLP from inflamed epithelium promotes maturation of dendritic cells (DCs) to prime Th2 responses via CCL17, which induces chemotaxis of CD4+ T cells to mediate inflammation (Kitajima and Ziegler. 2013. “Cutting Edge: Identification Of The Thymic Stromal Lymphopoietin-Responsive Dendritic Cell Subset Critical For Initiation Of Type 2 Contact Hypersensitivity”. J Immunol 191: 4903-4907; Bleck et al. 2015. “Co-Expression Of Type 2 Immune Targets In Sputum-Derived Epithelial And Dendritic Cells From Asthmatic Subjects”. J Allergy Clin Immunol 136: 619-627.e5). Normal human DCs were obtained from Lonza (Bend, OR). The DCs were cultured in LGM-3 medium (Lonza). TSLP (10 ng/mL) is added into the DC cultures for 5 days in the presence of 5 μg/mL of SM17, IgG4 isotype control (Sino Biological), SM17-TSLPR bsBp (SM17 fused with TSLP receptor extracellular domain) or SM17-anti-TSLP bsBp 2 #. The supernatants are harvested and the levels of CCL17 measured by ELISA following the manufacturer's specification (R&D systems).

[4] = target: T3, IL-33 (Homo sapiens, UniProt O95760); test: ELISA, antigen binding specificity of bsBp (IL-33); set-up: key: −: no binding; +: weak; ++: moderate; +++: strong binding; N/A refers to no binding affinity; settings: 33.5 nM; antigen coated at 2 μg/mL
T3 construct: purchased R&D systems
T3 sequence (O95760 95-270): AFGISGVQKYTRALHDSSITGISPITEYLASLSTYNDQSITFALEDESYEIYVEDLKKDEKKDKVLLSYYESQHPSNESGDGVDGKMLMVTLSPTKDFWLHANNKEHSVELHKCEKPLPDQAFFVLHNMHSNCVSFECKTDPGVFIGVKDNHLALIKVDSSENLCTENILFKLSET
Description: Binding specificities of bsBp were evaluated by standard ELISA assays. Briefly, ELISA strips were coated with the respective target antigens, including IL17RB, IL-33, or TSLP (R&D systems) at a final concentration of 2 μg/mL. Bispecific antibodies were added at 33.5 nM to ELISA strips coated with the desired antigen. After incubation under room temperature for 2 hours, ELISA strips were washed five times with PBS. […] No result is provided for SM17-human TSLPR as the yield was too low to be detected.

SM17: humanized anti-IL17RB monoclonal antibody, human IgG4 isotype; HC SEQ ID NO: 32, LC SEQ ID NO: 33
binding of SM17 to IL17RD (in words) [1]: No obvious bindings
OD 450 nm Absorption, murine IL17RB ([2]; SM17 0.0032 μg/mL): 0.12 and 0.19
OD 450 nm Absorption, murine IL17RB ([2]; SM17 0.016 μg/mL): 0.31
OD 450 nm Absorption, murine IL17RB ([2]; SM17 0.08 μg/mL): 0.78
OD 450 nm Absorption, murine IL17RB ([2]; SM17 0.4 μg/mL): 1.68 and 1.61
OD 450 nm Absorption, murine IL17RB ([2]; SM17 2 μg/mL): 2.46 and 2.44
OD 450 nm Absorption, murine IL17RB ([2]; SM17 10 μg/mL): 2.67 and 2.61
Potency, inhibition of CCL17 release on dendritic cells [3]: −
Intensity of specific antigen binding, IL-33 coated on ELISA strips [4]: −
